Experiment: melting temperature; melt of duplexes
Conditions: sodium 0.0675 M; strand 1 µM
Work on “CGACGTGCCGCATGTGCTG+CAGCACATGCCGCACGTCG ((((((((.((((((((((+)))))))))).))))))))” yielded a Tm of 58.9 °C.
“CGACGTGCCGCATGTGCTG+CAGCACATGGAGCACGTCG ((((((((..(((((((((+)))))))))..))))))))” gave a Tm of 55.1 °C.
In the case of “CGACGTGCCGCATGTGCTG+CAGCACATGTGGCACGTCG (((((((((.(((((((((+))))))))).)))))))))”, the Tm is reported as 62.9 °C.
“CGACGTGCCGCATGTGCTG+CAGCACATTCAGCACGTCG ((((((((.(.((((((((+)))))))).).))))))))” showed a Tm of 48.9 °C.
“CGACGTGCCGCATGTGCTG+CAGCACATTCGGCACGTCG ((((((((((.((((((((+)))))))).))))))))))” gave a Tm of 59.1 °C.
Work on “CGACGTGCCGCATGTGCTG+CAGCACATTGAGCACGTCG ((((((((...((((((((+))))))))...))))))))” yielded a Tm of 49.5 °C.
Substance “CGACGTGCCGCATGTGCTG+CAGCACATTGGGCACGTCG (((((((((..((((((((+))))))))..)))))))))” has a Tm of 54.4 °C.
“CGACGTGCCGGATGTGCTG+CAGCACATAAAGCACGTCG ((((((((...((((((((+))))))))...))))))))” showed a Tm of 50.2 °C.
“CGACGTGCCGGATGTGCTG+CAGCACATACCGCACGTCG ((((((((.(.((((((((+)))))))).).))))))))” showed a Tm of 53.6 °C.
For “CGACGTGCCGGATGTGCTG+CAGCACATAGAGCACGTCG ((((((((...((((((((+))))))))...))))))))”, the Tm was 50.2 °C.
“CGACGTGCCGGATGTGCTG+CAGCACATAGCGCACGTCG ((((((((...((((((((+))))))))...))))))))” showed a Tm of 49.9 °C.
“CGACGTGCCGGATGTGCTG+CAGCACATATAGCACGTCG ((((((((...((((((((+))))))))...))))))))” gave a Tm of 49.9 °C.
In the case of “CGACGTGCCGGATGTGCTG+CAGCACATATGGCACGTCG (((((((((..((((((((+))))))))..)))))))))”, the Tm is reported as 57.2 °C.
“CGACGTGCCGGATGTGCTG+CAGCACATCAAGCACGTCG ((((((((..(((((((((+)))))))))..))))))))” gave a Tm of 54.8 °C.
“CGACGTGCCGGATGTGCTG+CAGCACATCAGGCACGTCG (((((((((.(((((((((+))))))))).)))))))))” showed a Tm of 62.6 °C.
“CGACGTGCCGGATGTGCTG+CAGCACATCCGGCACGTCG (((((((((((((((((((+)))))))))))))))))))” gave a Tm of 68.2 °C.
“CGACGTGCCGGATGTGCTG+CAGCACATCTAGCACGTCG ((((((((..(((((((((+)))))))))..))))))))” showed a Tm of 55 °C.
In the case of “CGACGTGCCGGATGTGCTG+CAGCACATCTCGCACGTCG ((((((((..(((((((((+)))))))))..))))))))”, the Tm is reported as 54.1 °C.
“CGACGTGCCGGATGTGCTG+CAGCACATCTGGCACGTCG (((((((((.(((((((((+))))))))).)))))))))” showed a Tm of 62.7 °C.
“CGACGTGCCGGATGTGCTG+CAGCACATGCGGCACGTCG ((((((((((.((((((((+)))))))).))))))))))” gave a Tm of 62.6 °C.
Substance “CGACGTGCCGGATGTGCTG+CAGCACATGGAGCACGTCG ((((((((...((((((((+))))))))...))))))))” has a Tm of 51 °C.
“CGACGTGCCGGATGTGCTG+CAGCACATGGTGCACGTCG ((((((((...((((((((+))))))))...))))))))” gave a Tm of 47 °C.
In the case of “CGACGTGCCGGATGTGCTG+CAGCACATTACGCACGTCG ((((((((...((((((((+))))))))...))))))))”, the Tm is reported as 50.1 °C.
Substance “CGACGTGCCGGATGTGCTG+CAGCACATTAGGCACGTCG (((((((((..((((((((+))))))))..)))))))))” has a Tm of 57 °C.
“CGACGTGCCGGATGTGCTG+CAGCACATTATGCACGTCG ((((((((...((((((((+))))))))...))))))))” gave a Tm of 49.7 °C.
In the case of “CGACGTGCCGGATGTGCTG+CAGCACATTCCGCACGTCG ((((((((.(.((((((((+)))))))).).))))))))”, the Tm is reported as 54 °C.
“CGACGTGCCGGATGTGCTG+CAGCACATTCTGCACGTCG ((((((((.(.((((((((+)))))))).).))))))))” showed a Tm of 52.3 °C.
For “CGACGTGCCGGATGTGCTG+CAGCACATTGTGCACGTCG ((((((((...((((((((+))))))))...))))))))”, the Tm was 47.3 °C.
For “CGACGTGCCGGATGTGCTG+CAGCACATTTAGCACGTCG ((((((((...((((((((+))))))))...))))))))”, the Tm was 49.4 °C.
With “CGACGTGCCGTATGTGCTG+CAGCACATAAAGCACGTCG ((((((((..(((((((((+)))))))))..))))))))” the Tm was 51.5 °C.
With “CGACGTGCCGTATGTGCTG+CAGCACATAACGCACGTCG ((((((((..(((((((((+)))))))))..))))))))” the Tm was 52.6 °C.
“CGACGTGCCGTATGTGCTG+CAGCACATAATGCACGTCG ((((((((..(((((((((+)))))))))..))))))))” showed a Tm of 50.3 °C.
For “CGACGTGCCGTATGTGCTG+CAGCACATAGAGCACGTCG ((((((((..(((((((((+)))))))))..))))))))”, the Tm was 53.1 °C.
With “CGACGTGCCGTATGTGCTG+CAGCACATAGTGCACGTCG ((((((((..(((((((((+)))))))))..))))))))” the Tm was 49.5 °C.
“CGACGTGCCGTATGTGCTG+CAGCACATATAGCACGTCG ((((((((..(((((((((+)))))))))..))))))))” showed a Tm of 52.1 °C.
Substance “CGACGTGCCGTATGTGCTG+CAGCACATATTGCACGTCG ((((((((..(((((((((+)))))))))..))))))))” has a Tm of 51.5 °C.
Work on “CGACGTGCCGTATGTGCTG+CAGCACATCATGCACGTCG ((((((((...((((((((+))))))))...))))))))” yielded a Tm of 48.9 °C.
Substance “CGACGTGCCGTATGTGCTG+CAGCACATCCAGCACGTCG ((((((((.(.((((((((+)))))))).).))))))))” has a Tm of 49.8 °C.
Substance “CGACGTGCCGTATGTGCTG+CAGCACATCCTGCACGTCG ((((((((.(.((((((((+)))))))).).))))))))” has a Tm of 49.7 °C.
With “CGACGTGCCGTATGTGCTG+CAGCACATCTCGCACGTCG ((((((((...((((((((+))))))))...))))))))” the Tm was 48.5 °C.
For “CGACGTGCCGTATGTGCTG+CAGCACATCTTGCACGTCG ((((((((...((((((((+))))))))...))))))))”, the Tm was 48.5 °C.
In the case of “CGACGTGCCGTATGTGCTG+CAGCACATGACGCACGTCG ((((((((...((((((((+))))))))...))))))))”, the Tm is reported as 47.8 °C.
In the case of “CGACGTGCCGTATGTGCTG+CAGCACATGCGGCACGTCG ((((((((((.((((((((+)))))))).))))))))))”, the Tm is reported as 62.4 °C.
For “CGACGTGCCGTATGTGCTG+CAGCACATGCTGCACGTCG ((((((((.(.((((((((+)))))))).).))))))))”, the Tm was 51.2 °C.
“CGACGTGCCGTATGTGCTG+CAGCACATGGGGCACGTCG (((((((((..((((((((+))))))))..)))))))))” gave a Tm of 57.1 °C.
Work on “CGACGTGCCGTATGTGCTG+CAGCACATGGTGCACGTCG ((((((((...((((((((+))))))))...))))))))” yielded a Tm of 46.6 °C.
“CGACGTGCCGTATGTGCTG+CAGCACATGTGGCACGTCG (((((((((..((((((((+))))))))..)))))))))” showed a Tm of 55.7 °C.
For “CGACGTGCCGTATGTGCTG+CAGCACATGTTGCACGTCG ((((((((...((((((((+))))))))...))))))))”, the Tm was 48.3 °C.
Substance “CGACGTGCCGTATGTGCTG+CAGCACATTAAGCACGTCG ((((((((...((((((((+))))))))...))))))))” has a Tm of 49.1 °C.
In the case of “CGACGTGCCGTATGTGCTG+CAGCACATTATGCACGTCG ((((((((...((((((((+))))))))...))))))))”, the Tm is reported as 48.6 °C.
With “CGACGTGCCGTATGTGCTG+CAGCACATTCGGCACGTCG ((((((((((.((((((((+)))))))).))))))))))” the Tm was 59.9 °C.
With “CGACGTGCCGTATGTGCTG+CAGCACATTGTGCACGTCG ((((((((...((((((((+))))))))...))))))))” the Tm was 45.5 °C.
Substance “CGACGTGCCGTATGTGCTG+CAGCACATTTGGCACGTCG (((((((((..((((((((+))))))))..)))))))))” has a Tm of 55.2 °C.
“CGACGTGCCTAATGTGCTG+CAGCACATAACGCACGTCG ((((((((.(.((((((((+)))))))).).))))))))” gave a Tm of 48.2 °C.
With “CGACGTGCCTAATGTGCTG+CAGCACATCAGGCACGTCG ((((((((((.((((((((+)))))))).))))))))))” the Tm was 56.3 °C.
“CGACGTGCCTAATGTGCTG+CAGCACATCATGCACGTCG ((((((((.(.((((((((+)))))))).).))))))))” showed a Tm of 48.5 °C.
In the case of “CGACGTGCCTAATGTGCTG+CAGCACATCGTGCACGTCG ((((((((...((((((((+))))))))...))))))))”, the Tm is reported as 43.1 °C.
With “CGACGTGCCTAATGTGCTG+CAGCACATCTTGCACGTCG ((((((((...((((((((+))))))))...))))))))” the Tm was 48 °C.
In the case of “CGACGTGCCTAATGTGCTG+CAGCACATGACGCACGTCG ((((((((.(.((((((((+)))))))).).))))))))”, the Tm is reported as 46.4 °C.
Work on “CGACGTGCCTAATGTGCTG+CAGCACATGAGGCACGTCG ((((((((((.((((((((+)))))))).))))))))))” yielded a Tm of 58.5 °C.
“CGACGTGCCTAATGTGCTG+CAGCACATGCGGCACGTCG (((((((((..((((((((+))))))))..)))))))))” gave a Tm of 53.3 °C.
Work on “CGACGTGCCTAATGTGCTG+CAGCACATGGCGCACGTCG ((((((((...((((((((+))))))))...))))))))” yielded a Tm of 51.1 °C.
With “CGACGTGCCTAATGTGCTG+CAGCACATGGGGCACGTCG (((((((((..((((((((+))))))))..)))))))))” the Tm was 56 °C.
For “CGACGTGCCTAATGTGCTG+CAGCACATGGTGCACGTCG ((((((((...((((((((+))))))))...))))))))”, the Tm was 48.3 °C.
In the case of “CGACGTGCCTAATGTGCTG+CAGCACATTAAGCACGTCG ((((((((.((((((((((+)))))))))).))))))))”, the Tm is reported as 53.4 °C.
For “CGACGTGCCTAATGTGCTG+CAGCACATTATGCACGTCG ((((((((.((((((((((+)))))))))).))))))))”, the Tm was 54 °C.
Work on “CGACGTGCCTAATGTGCTG+CAGCACATTCTGCACGTCG ((((((((..(((((((((+)))))))))..))))))))” yielded a Tm of 51 °C.
“CGACGTGCCTAATGTGCTG+CAGCACATTGAGCACGTCG ((((((((..(((((((((+)))))))))..))))))))” showed a Tm of 52.7 °C.
In the case of “CGACGTGCCTAATGTGCTG+CAGCACATTGTGCACGTCG ((((((((..(((((((((+)))))))))..))))))))”, the Tm is reported as 49 °C.
Work on “CGACGTGCCTAATGTGCTG+CAGCACATTTCGCACGTCG ((((((((..(((((((((+)))))))))..))))))))” yielded a Tm of 50.5 °C.
With “CGACGTGCCTAATGTGCTG+CAGCACATTTGGCACGTCG (((((((((.(((((((((+))))))))).)))))))))” the Tm was 58.7 °C.
For “CGACGTGCCTCATGTGCTG+CAGCACATAAGGCACGTCG ((((((((((.((((((((+)))))))).))))))))))”, the Tm was 56.2 °C.
